The data set has as its system MS2 coat protein. The experiment in a line: apparent KD of MS2 coat protein; designed switch direction (-1 OFF switch, 1 ON switch): -1; higher = weaker reporter binding. The procedure, abridged:
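The apparent KD reported per design is the median over clusters of curve fits to normalised cluster fluorescence. The RNA switches were transcribed on Illumina chips by stalled E. coli RNA polymerase. SNAP-549-labelled MS2 coat protein was titrated from 0.7 or 1.5 nM, doubling up to 3 µM, in Tris-HCl pH 7.5 buffer containing KCl, MgCl2, BSA, DTT, tRNA and Tween-20, with no input, 200 uM small-molecule ligand, or an oligonucleotide input.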

[1] abbreviates: input ligand: microRNA oligo, concentration not stated.
[2] abbreviates: Eterna round: R95, input ligand: FMN 200 uM.
The mark [3] stands for this setting: Eterna round: R95, input ligand: microRNA oligo, concentration not stated.
Where [4] appears, read: Eterna round: R95, input ligand: none.

Consider “AUAUUAAUAGUAAGGAUAUGCGUGUGUGUAGUUAUGCAGAAGGUACAUGAGGAUCACCCAUGUAUUAAUGUGUG [LRO-BmodExc4-08-Oppy's Opus] (Eterna round: R97, puzzle: Brourd's mod of Exclusion 4)”, for which the “apparent KD of MS2 coat protein” value was determined as 18 nM (input ligand: FMN 200 uM) and 19.7 nM (input ligand: none).
Turning to “UGUUGUUACGUAGGAUAUUGCCAACAGGCAGUAGGAUAUGCGAAAGCAGAAGGACCGCCAACAGGCGAGAAGGACGGGUUAACA [pwkr exNG2 2xF7 2xFMN.11] (Eterna round: R96, puzzle: Exclusion NG 2)”, the “apparent KD of MS2 coat protein” value reads like this: (input ligand: FMN 200 uM) 286 nM; under setting [1], 31.5 nM; (input ligand: none) 389 nM.
As to “CAGUACUGAGGAUAUACAUGAGGAUCACCCAUGUGUGUGAGAAUUGUAUGAAUGUUAUGUAGAAGGCGGUGCUG [JR_Ex3_Sub033] (Eterna round: R97, puzzle: Exclusion 3)”, the “apparent KD of MS2 coat protein” value came out at 143 nM (input ligand: FMN 200 uM) and 765 nM (input ligand: none).
Turning to “AAGAUGUGAGGAUAUCACGAGAACGUCACACGGACGCUCUCUGAGAAGGCACAUGAGGAUCACCCAUGUCCAAC [EX4 A.21] (Eterna round: R97, puzzle: Exclusion 4)”, the “apparent KD of MS2 coat protein” value (input ligand: FMN 200 uM) turned out to be 207 nM and the “apparent KD of MS2 coat protein” value (input ligand: none) was found to be 47.2 nM.
Turning to “UAUUAGCAAGUAAGGUCCCACAUGAGGAUCACCCAUGUGCUCGUCUCCUCAGGUACGGAGCGGAAACUCCCGAUAUG [Sensor-V1 #92] (Eterna round: R97, puzzle: Sensor, turn-off variant 1)”, the “apparent KD of MS2 coat protein” value by setting is: (input ligand: FMN 200 uM) 121 nM; (input ligand: none) 102 nM.
As for “AUUUAUGGAGGAUAUACUUGAGGAUCACCCAAGUGGAGUCCCGUUUGGGCGGUAAAUAGUAGAAGGCCGUCCUA [jl-ex3-4.47 ViennaUCT mod] (Eterna round: R97, puzzle: Exclusion 3)”, the “apparent KD of MS2 coat protein” value reads like this: (input ligand: FMN 200 uM) 15.7 nM; (input ligand: none) 14.2 nM.
Take “CUCUUGUCAGGAUAUCAACGCCGCCCACAUGGGCAGCGAAAUGAGAAGGGACAUGAGGAUCACCCAUGUUAAAA [Retema] (puzzle: Exclusion 4)”: the “apparent KD of MS2 coat protein” value under setting [2] was determined as 30.4 nM, the “apparent KD of MS2 coat protein” value under setting [3] was 161 nM and the “apparent KD of MS2 coat protein” value under setting [4] was 218 nM.
On to “UCGACGUCGUCAGGAUAUAGUUUUAAUGUCAUGCUUUUGUUCGUACAUGAGGAUCACCCAUGUGGCUAGAAGGGACUAAAGAUU [JR_ExcNG2_Sub014] (Eterna round: R96, puzzle: Exclusion NG 2)”, for which the “apparent KD of MS2 coat protein” value was determined as 22.9 nM (input ligand: FMN 200 uM), 27 nM under setting [1] and 18.8 nM (input ligand: none).
With “AGUUGGGAAGGAUAUACAUGAGGAUCACCCAUGUGAAAUUAUAGUGAGGAAAUGAAAAGUAGAAGGUCCUGACA [Mod of Mat 4 - Jieux - Exclusion 3] (Eterna round: R97, puzzle: Exclusion 3)”, the “apparent KD of MS2 coat protein” value is, setting by setting: (input ligand: FMN 200 uM) 147 nM; (input ligand: none) 35.8 nM.
On to “GUCAGGAAUGUAGGAUAUCUGCACGUGUAGUGCAGAGAAGGACAUGAGGAUCACCCAUGUAUAGUAGCUUCGGCUACACCUGAC [ENG1-A3] (Eterna round: R96, puzzle: Exclusion NG 1)”, for which the “apparent KD of MS2 coat protein” value (input ligand: FMN 200 uM) came out at 18 nM, the “apparent KD of MS2 coat protein” value under setting [1] was 9.93 nM and the “apparent KD of MS2 coat protein” value (input ligand: none) came to 18.1 nM.
Regarding “GCUGCGCGAGGAUAUGCGGUUUGCGCUGUGGCCCGUGGCGUACAUGAGGAUCACCCAUGUAGAAGGCGUGUGGG [Apr-15 SS2-55] (puzzle: Exclusion 2)”, the “apparent KD of MS2 coat protein” value under setting [3] stood at 18.6 nM.
With “GCACGACAUCAGGAUAUGACUAGCUUCGGCUAGUCAGAAGGGAUGACAUGAGGAUCACCCAUGUGAUCACGUGC [E6/2-B1] (Eterna round: R97, puzzle: Exclusion 6)”, the “apparent KD of MS2 coat protein” value is, setting by setting: (input ligand: FMN 200 uM) 122 nM; (input ligand: none) 91.8 nM.
Consider “AAAACACAUGAGGAUCACCCAUGUGAGGAUAUGUUCAUGUUCAGCAAACUGAACAUGAACAGAAGGCACAUAAA [JR_Exclusion1_Sub016] (puzzle: Exclusion 1)”, for which the “apparent KD of MS2 coat protein” value under setting [2] was determined as 44.7 nM, the “apparent KD of MS2 coat protein” value under setting [3] was found to be 36.5 nM and the “apparent KD of MS2 coat protein” value under setting [4] worked out at 40.4 nM.

The values are drawn from the supplement of paper PMC9170038.
